# Experimental data taken from IntAct's records for PubMed 7561682.
# B1: Focal adhesion kinase 1 (Homo sapiens), Q05397 (parent)
# chain: MAAAYLDPNLNHTPNSSTKTHLGTGMERSPGAMERVLKVFHYFESNSEPTTWASIIRHGDATDVRGIIQKIVDSHKVKHVACYGFRLSHLRSEEVHWLHVDMGVSSVREKYELAHPPEEWKYELRIRYLPKGFLNQFTEDKPTLNFFYQQVKSDYMLEIADQVDQEIALKLGCLEIRRSYWEMRGNALEKKSNYEVLEKDVGLKRFFPKSLLDSVKAKTLRKLIQQTFRQFANLNREESILKFFEILSPVYRFDKECFKCALGSSWIISVELAIGPEEGISYLTDKGCNPTHLADFTQVQTIQYSNSEDKDRKGMLQLKIAGAPEPLTVTAPSLTIAENMADLIDGYCRLVNGTSQSFIIRPQKEGERALPSIPKLANSEKQGMRTHAVSVSETDDYAEIIDEEDTYTMPSTRDYEIQRERIELGRCIGEGQFGDVHQGIYMSPENPALAVAIKTCKNCTSDSVREKFLQEALTMRQFDHPHIVKLIGVITENPVWIIMELCTLGELRSFLQVRKYSLDLASLILYAYQLSTALAYLESKRFVHRDIAARNVLVSSNDCVKLGDFGLSRYMEDSTYYKASKGKLPIKWMAPESINFRRFTSASDVWMFGVCMWEILMHGVKPFQGVKNNDVIGRIENGERLPMPPNCPPTLYSLMTKCWAYDPSRRPRFTELKAQLSTILEEEKAQQEERMRMESRRQATVSWDSGGSDEAPPKPSRPGYPSPRSSEGFYPSPQHMVQTNHYQVSGYPGSHGITAMAGSIYPGQASLLDQTDSWNHRPQEIAMWQPNVEDSTVLDLRGIGQVLPTHLMEERLIRQQQEMEEDQRWLEKEERFLKPDVRLSRGSIDREDGSLQGPIGNQHIYQPVGKPDPAAPPKKPPRPGAPGHLGSLASLSSPADSYNEGVKLQPQEISPPPTANLDRSNDKVYENVTGLVKAVIEMSSKIQPAPPEEYVPMVKEVGLALRTLLATVDETIPLLPASTHREIEMAQKLLNSDLGELINKMKLAQQYVMTSLQQEYKKQMLTAAHALAVDAKNLLDVIDQARLKMLGQTRPH
# Variants of: B1
# Details: with paxi_human PXN
row,Variant,effect of a mutation on the interaction
1,L931R,decreasing interaction
2,L1035A,decreasing interaction
3,L1034S,decreasing interaction
4,R1042G,decreasing interaction
5,V935A,decreasing interaction
6,V1037D,decreasing interaction
7,D1039A,decreasing interaction
8,V928G,decreasing interaction
